In article PMC7927077, “Glucose-Binding of Periplasmic Protein GltB Activates GtrS-GltR Two-Component System in Pseudomonas aeruginosa” (Microorganisms, 2021):

How the values were obtained:
[1] = target: 6His-GtrS^LBD, the N-terminal 6His-tagged ligand-binding domain of GtrS (residues 29-199) (P. aeruginosa PAO1) (UniProt Q9HZ47); assay: SPR; OpenSPR localized SPR; 6His-GtrS^LBD fixed on COOH chip by capture-coupling; 6His-GltB injected at 1000, 500, 250, 125 nM; 50 mM Tris, 50 mM NaCl, pH 7.0, 25 °C; one to one model
[2] = target: 6His-GltB, the N-terminal 6His-tagged GltB (P. aeruginosa PAO1); assay: SPR; OpenSPR localized SPR; 6His-GltB fixed on COOH chip by capture-coupling; 6His-PctA^LBD (1500-500 nM) or 6His-PA2788^LBD (500-100 nM) injected; 50 mM Tris, 50 mM NaCl, pH 7.0, 25 °C; one to one model
[3] = target: T1, GltB (periplasmic glucose-binding protein) (Pseudomonas aeruginosa, UniProt Q9HZ48); assay: ITC ([…] °C, one-site model); supported by concentration-dependent thermal shift
T1 construct: gene PA3190; 6His-GltB, the N-terminal 6His-tagged GltB

## 6His-GltB, the N-terminal 6His-tagged GltB (natural protein)
[1]
  Kd: 100 nM

## 6His-PctA^LBD, the N-terminal 6His-tagged ligand-binding domain of PctA (residues 30-278) (from UniProt G3XD24 30-278) (domain or fragment)
[2]
  Kd: 800 nM

## OC[C@H]1OC(O)[C@H](O)[C@@H](O)[C@@H]1O (stereo partly shown) [glucose]
[3]
  Kd: 1370 nM

B1: 6His-PA2788^LBD, the N-terminal 6His-tagged ligand-binding domain of PA2788 (residues 44-179) (domain or fragment)
chain: YLSMSISPETINVAGAQRMLSQKMAREALQLRLGAGDPKALAATIAQYERSAADLDAGNAERNVSRMGAPEIAAQRQKVAQIWGRYRAMLDQVAQPASQVDLRGFSQYSTELLGELNNLVSLMSARADSVQHTQMW
[2]
  Kd: 400 nM
